In US20200216495A1 (ADRX, published 2020):
Where “and” joins values, the source holds several entries; their conditions need not be identical. Identical values can stand only once. Square brackets hold non-standard residues; d marks the D form. Ends that are not written are not given here.

Biological target: Tau40 P301L protein (human)
Experiment: cell-based or functional assay

Binder | IC50, Tau40 assay (ThT)
[dW][dR][dL][dT][dI][dH][dW] [wrltihw] | 2760 nM
[dL][dE][dL][dK][dI][dK][dF][dW] [lelkikfw] | 2730 nM and 2850 nM
[dW][dD][dL][dK][dV][dR][dW] [wdlkvrw] | 2760 nM
[dL][dK][dL][dK][dI][dK][dH][dF] [lklkikhf] | 2750 nM
[dF][dK][dI][dR][dI][dH][dY][dH] [fkirihyh] | 2760 nM
[dT][dR][dL][dR][dI][dH][dW] [trlrihw] | 2700 nM
[dW][dR][dL][dK][dV][dD][dW] [wrlkvdw] | 2700 nM

Biological target: Ac-VQIINK-NH2 (SEQ ID NO: 23) (N-terminal acetyl (Ac); C-terminal amide (NH2))
Experiment: cell-based or functional assay

Binder | VQIINK Inhibition IC50
[dL][dK][dI][dR][dI][dH][dA] [lkiriha] | 5.3 µm
[dL][dK][dR][dR][dI][dH][dY][dH] [lkrrihyh] | 31.8 µm
[dW][dR][dL][dR][dM][dH][dW] [wrlrmhw] | 8.93 µm
[dI][dR][dI][dH][dY][dH][dL][dK] [irihyhlk] | 8.69 µm
[dA][dR][dL][dR][dI][dH][dW] [arlrihw] | 6.61 µm
[dE][dR][dL][dR][dI][dH][dW] [erlrihw] | 13.6 µm
[dK][dI][dR][dI][dH][dY][dH][dL] [kirihyhl] | 7.25 µm
[dL][dK][dI][dR][dI][dA][dY][dH] [lkiriayh] | 5.21 µm
[dL][dK][dI][dR][dI][dE][dY][dH] [lkirieyh] | 7.95 µm
[dV][dR][dW][dW][dW][dR][dL][dK] [vrwwwrlk] | 9.47 µm
[dW][dR][dL][dR][dI][dH][dA] [wrlriha] | 9.75 µm
[dE][dR][dL][dK][dV][dR][dW][dW] [erlkvrww] | 20.4 µm
[dK][dV][dR][dW][dW][dW][dR][dL] [kvrwwwrl] | 15.2 µm
[dW][dR][dL][dA][dI][dH][dW] [wrlaihw] | 6.49 µm
[dW][dR][dL][dM][dI][dH][dW] [wrlmihw] | 6.58 µm
[dL][dK][dI][dA][dI][dH][dY] [lkiaihy] | 4.77 µm
[dW][dR][dL][dK][dV][dR][dE][dW] [wrlkvrew] | 5.77 µm
[dK][dL][dK][dI][dV][dW] [klkivw] | 6.95 µm
[dW][dR][dL][dK][dV][dR][dA] [wrlkvra] | 20.5 µm
[dL][dK][dI][dR][dI][dH][dA][dH] [lkirihah] | 5.54 µm
[dW][dR][dL][dK][dH][dR][dW] [wrlkhrw] | 13.5 µm
[dW][dR][dM][dR][dI][dH][dW] [wrmrihw] | 11.7 µm
[dW][dR][dA][dR][dI][dH][dW] [wrarihw] | 19.1 µm
[dT][dL][dK][dI][dV][dW] [tlkivw] | 5.02 µm and 7.98 µm
[dA][dK][dI][dR][dI][dH][dY][dH] [akirihyh] | 8.93 µm
[dE][dL][dK][dI][dV][dW] [elkivw] | 6.85 µm
[dL][dK][dV][dR][dW][dW] [lkvrww] | 6.63 µm

Binder | VQIINK Inhibition IC50
[dR][dI][dK][dI][dR][dW] [rikirw] | 10.8 µm
[dK][dL][dK][dW][dL][dW] [klkwlw] | 6.93 µm
[dW][dR][dR][dK][dV][dR][dW][dW] [wrrkvrww] | 6.43 µm
[dR][dL][dK][dV][dR][dW][dW] [rlkvrww] | 5.35 µm
[dW][dK][dL][dK][dL][dR][dW] [wklklrw] | 5.33 µm
[dW][dR][dE][dK][dV][dR][dW][dW] [wrekvrww] | 7.34 µm
[dR][dL][dK][dI][dR][dW] [rlkirw] | 10.9 µm
[dR][dK][dI][dR][dI][dH][dY][dH] [rkirihyh] | 5.59 µm
[dL][dK][dI][dR][dR][dH][dY][dH] [lkirrhyh] | 10.5 µm
[dT][dI][dK][dL][dV][dW] [tiklvw] | 5.37 µm
[dT][dK][dI][dR][dI][dH][dY] [tkirihy] | 4.77 µm
[dW][dF][dL][dR][dI][dH][dW] [wflrihw] | 8.18 µm
[dY][dR][dL][dK][dV][dR][dW] [yrlkvrw] | 5.12 µm
[dW][dR][dL][dK][dT][dR][dW] [wrlktrw] | 8.61 µm
[dW][dR][dL][dK][dV][dR][dR][dW] [wrlkvrrw] | 7.04 µm
[dW][dR][dT][dK][dT][dR][dW] [wrtktrw] | 13.1 µm
[dM][dR][dL][dK][dV][dR][dW] [mrlkvrw] | 5.67 µm
[dR][dT][dL][dK][dI][dV][dW][dR] [rtlkivwr] | 5.65 µm
[dL][dK][dI][dR][dI][dH][dR][dH] [lkirihrh] | 7.35 µm
[dW][dR][dL][dR][dI][dH][dT] [wrlriht] | 7.32 µm
[dW][dE][dL][dK][dV][dE][dW] [welkvew] | 11 µm
[dW][dR][dL][dR][dI][dH][dE] [wrlrihe] | 14.5 µm
[dW][dR][dL][dR][dI][dF][dW] [wrlrifw] | 6.33 µm
[dR][dR][dL][dR][dI][dH][dW] [rrlrihw] | 12.1 µm
[dW][dR][dL][dR][dI][dH][dM] [wrlrihm] | 7.39 µm
[dL][dK][dI][dR][dI][dH][dY] [lkirihy] | 17.6 µm
[dL][dK][dA][dR][dI][dH][dY][dH] [lkarihyh] | 10 µm
